Tests used:
[1] = LC-MS assay of GH3 conjugation of IAA with Asp or Glu; assay type: biochemical; conditions: for kcat (hrs−1) IAA-Asp: conjugation of IAA with Asp by recombinant GH3 protein, IAA-Asp product by LC-MS; for kcat (hrs−1) IAA-Glu: conjugation of IAA with Glu by recombinant GH3 protein, IAA-Glu product by LC-MS
Procedure, shortened: (§1)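 Amino acid conjugates of IAA, 2,4-D or dicamba measured by LC-MS against conjugate standards, with kinetic parameters fitted to Michaelis-Menten initial velocities. Reactions: 5 mM each of auxin, ATP and Asp or Glu with 44 to 164 μg/mL purified His-tagged GH3 (E. coli-expressed), pH 8.0 Tris, 5 mM MgCl2, 1 mM DTT, 30 °C for 3 h.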

[2] = LC-MS assay of GH3 conjugation of 2,4-D with Asp or Glu; assay type: biochemical; conditions: 5 mM 2,4-D substrate; for kcat (hrs−1) 2,4-D-Asp: conjugation of 2,4-D with Asp by recombinant GH3 protein, 2,4-D-Asp product by LC-MS; for kcat (hrs−1) 2,4-D-Glu: conjugation of 2,4-D with Glu by recombinant GH3 protein, 2,4-D-Glu product by LC-MS
Procedure, shortened: as §1

Molecule	kcat (hrs−1) IAA-Asp [1]	kcat (hrs−1) IAA-Glu [1]	kcat (hrs−1) 2,4-D-Asp [2]	kcat (hrs−1) 2,4-D-Glu [2]
OsGH3-8: GH3 protein, accession Q0D4Z6 (protein, listed as Oryza sativa) MAVMTDVSTTGTALRTPAAGAVKEGDVEKLRFIDEMTTNVDAVQERVLGEILGRNAGTEYLTKCGLDGATDRAAFRAKVPVVSYDDLQPYIQRIANGDRSPILSTHPVSEFLTSSGTSAGERKLMPTIMDELDRRQLLYSLLMPVMNLYVPGLDKGKGLYFLFVKSETKTPGGLTARPVLTSYYKSDHFKNRPYDPYHNYTSPTAAILCADAFQSMYAQMVCGLCQRNDVLRLGAVFASGLLRAIRFLQLNWEQLADDIESGELTPRVTDPSVREAVAAILLPDPELAKLIRAECSKGDWAGIITRVWPNTKYLDVIVTGAMAQYIPTLEFYSGGLPMACTMYASSECYFGLNLRPMCDPSEVSYTIMPNMGYFEFLPVDETGAASGDATQLVDLARVEVGREYELVITTYAGLNRYRVGDVLRVTGFHNAAPQFRFVRRKNVLLSIESDKTDEAELQRAVERASALLRPHGASVVEYTSQACTKRIPGHYVIYWELLTKGAGATVVDADTLGRCCLEMEEALNTVYRQSRVADGSIGPLEIRVVRPGTFEELMDYAISRGASINQYKVPRCVTFPPIVELLDSRVVSSHFSPALPHWTPARRSE	578.598 h⁻¹	28.361 h⁻¹	2.917 h⁻¹	0.368 h⁻¹
AIGH3-12 (protein, listed as Arabidopsis lyrata) MKPISDINESFEKQLKYLTSDVKQIQDNLLEEIITPNTKTEYLQRFLIGRFDKDLFKKNVPIVTYEDIKPYLDRVVNGESSDVISARPITGFLLSSGTSGGAQKMMPWNNKYLDNLTFIYDLRMQVITKHVKGVEEGKGMMFLFTKQESMTPSGLPARVATSSYFKSDYFKHRPSNWYYSYTSPDEVILCPNNTQSLYCHLLCGLVQRDEVVRTGSIFASVMVRAIEVLKNSWEELCSNIRSGHLSNWVTDLGCQSSVSLVLGGPRPELADTIEEICNQKSWKGIVKRLWPNTKYIETVVTGSMGQYVPMLNYYCNDLPLVSTTYGSSETTFGINLDPLCKPEDVSYTFMPNMSYFEFIPMDGDNNDVVDLEDVKLGCTYEPVVTNFAGLYRMRVGDIVLVTGFYNNAPQFKFVRRENVVLSIDSDKTNEEDLFKAVSQAKLVLESSGLDLKDFTSYADTSTFPGHYVVYLEVDTKEGEEKKTAQFELDEEALSMCCLVMEESLDNVYKRCRFKDGSIGPLEIRVVRQGTFISLMDFFISQGASTGQYKTPRCIKSGKALQVLETCVVAKFFSS	0.000 h⁻¹	12.925 h⁻¹	0.006 h⁻¹	0.057 h⁻¹
OsGH3-4: GH3 protein, accession AAU90225 (protein, listed as Oryza sativa) MPEAVAAAVSPAAAAATAMCAEHREKLEHIERVTRNAGQEQRRVLEEILAQNAQAEYLRRLGVPGDAPGADEAFRRLAPLVTYEDILPDVLRIANGDTSPILSGKPVSEFLTSSGTSGGERKLMPTIEEEMERRSGLYSLLMPVMSRQVPGLDKGKAMYLYFVKSEWRTPGGLPARPVLTSFYRSRYFLERPHDPYTVYTSPDEAVLCEDAYQSMYAQLICGLVHRADVLRVGAVFASGFLRAIRFLEKHWPSLCRDIRAGELDGGVTDPAVRGAVGRVLRGADPALADAIEAECARPSWQGIIRRVWPSTKYIDVIVTGAMAQYIPTLEFYGGGLPLACTMYASSECYFGLNLNPMCKPSEVAYTLIPTMCYFEFLPVNSGANDVAAPEPDHRGLVDLVDVKLGHEYELVVTTYSGLYRYRVGDVLRVAGFKNAAPMFAFVRRKNVALSIDSDKTDEAELHAAVTEAVQHLAPFGASLVEYTSYADTATTIPGHYVLFWELRSPAGGTPVPASVFEDCCLAVEEGLNSVYRQCRAADRSIGPLEIRVVADGTFDKLMDYALSRGASINQYKAPRCVRPGPVVELLDGRVQATYFSPKCPKWCAGGNKQWISSGAAAKKTTTTCDSLAV	919.336 h⁻¹	17.854 h⁻¹	2.002 h⁻¹	0.254 h⁻¹
AtGH3-15: GH3 protein, accession CAB87144 (protein, listed as Arabidopsis thaliana) MLPKFDPTNQKACLSLLEDLTTNVKQIQDSVLEAILSRNAQTEYLRGFLNGQVDKQNFKKNVPVVTYEDIRSYIDRIANGEPSDLICDRPISVLLTSSGTSGGVPKLIPLTTEDLEQRISFSSLYAPLLYKHIDGLSEGKSLIFYFVTRESKTANGDSLQVSPHAITTCADTTQSMYCQLLCGLLERDNVARLGAPFASSFLKVIKFLEDHWPELCSNIRTGRLSDWITDATCTSGIGKFLTAPNPELASLIEQECSKTSWEAILKRLWPKAKCIESIITGTMAQYIPLLEFYSGGLPLTSSFYGSSECFMGVNFNPLCKPSDVSYTIIPCMGYFEFLEVEKDHQEAGHDPTEKPVVVDLVDVKIGHDYEPVVTTFSGLYRYRVGDVLRATGFYNNAPHFCFVGRQKVVLSIDMDKTYEDDLLKAVTNAKLLLEPHDLMLMDFTSRVDSSSFPGHYVIYWELGSKVKDAKFEPNRDVMEECCFTVEESLDAVYRKGRKNDKNIGPLEIKVVKPGAFDELMNFFLSRGSSVSQYKTPRSVTNEEALKILEANVISEFLSRKIPSWELHELHSGR	0.000 h⁻¹	0.000 h⁻¹	0.000 h⁻¹	0.000 h⁻¹
OsGH3-2: GH3 protein, accession BAF06259 (protein, listed as Oryza sativa) MAPAAVAAAEAGSKAAAVAGKAVAACERDAEKLEFIEEMTRGFDAVQERVLAAILARNNGAEYLRRHGMEGRTDREAFKARVPVVTYEDLRPEIERIANGDRSNIISSHPITEFLTSSGTSAGERKLMPTIEDELDRRQMLYSLLMPVMNLYVPGLDKGKGLYFLFIKSETKTPGGLPARPVLTSYYKSDHFKHRPFDPYNVYTSPTAAILCTDAFQSMYAQMLCGLVARAEVLRVGAVFASGLLRAIRFLQLHWRELAHDIRTGTLSAKVTEPSIRDAVAEVLAAPDAELAAFVEAECGKDKWEGIITRMWPNTKYLDVIVTGAMAQYIPTLKFYSGGLPMACTMYASSECYFGLNLRPMCDPSEVSYTIMPNMGYFELMPHDPDAPPLPRDAPPPRLVDLADAEVGREYELVITTYAGLCRYRVGDILQVTGFHNAAPQFRFVRRKNVLLSIDSDKTDEAELQAAVERASALLSPYGASIVEYTSQADATTIPGHYVVYWELMVREGGAWPPPAEEEGRGVFERCCLEMEEALNAVYRQGRNGEAIGPLEIRVVRAGTFEEVMDYAISRGASINQYKAPRCVSFGPIIELLNSRVISKHFSPACPKYSPHKK	664.242 h⁻¹	42.295 h⁻¹	1.548 h⁻¹	0.401 h⁻¹
SbEER99639: GH3 protein, accession EER99639 (protein, Sorghum bicolor) MAVMAEVVSTTGAALRSPASQPPPPPAAAAVKDADAEKLQFIEEMTSNVDAVQERVLGEILARNADTEYLAKYGITGASDRATFRAKVPMATYEDLQPYIRRIADGDRSPILSGHPVSEFLTSSGTSAGERKLMPTIEDELNRRQLLYSLQMPVMNLYVPGMDKGKALHFLFVKSETKTPGGLAARPVLTSYYKSNHFKNRPFDAYNNYTSPTAAILCADAFQSMYAQMVCGLCQRQDVLRVGAVFASGLLRAIRFLQLNWEQLADDIESGSLTPRITDPSVREAVAGILRPDPELASLVRSECSKGDWAGIITRIWPNTKYLDVIVTGAMAQYIPTLKYYSGGLPMACTMYASSECYFGLNLRPMCDPSEVSYTLMPNMCYFEFLPMDAAASGGGDASQLVDLARVEVGREYELVITTYAGLNRYRVGDVLQVTGFHNTAPQFRFVRRKNVLLSIESDKTDEAELQRAVERASALLRPHGAAVVEYTSQAYTKSIPGHYVIYWELLTKGPAAGAGAAVDRETLDRCCLEMEEALNTVYRQSRVADGSIGPLEIRVVRPGTFEELMDYAISRGASINQYKVPRCVTFPPIIELLDSRVVSTHFSPALPHWTPGQRSHSD	651.991 h⁻¹	31.110 h⁻¹	2.476 h⁻¹	0.457 h⁻¹
AIGH3-7 (protein, listed as Arabidopsis lyrata) VLEDLTSNVTQLQDNEILTLNANTNYLQSFFRGRFDKEIFKKNVPVVTYDDPSNVISAQPITGFVLSSGTSGGAQKMMPWNEKYLDSCMIFGCINVKNVEKGKAMMFYFTKLESITPSGLPARVASSSYLKSNYFKNRPSNWYYTYTSPDELTLCPDNKQNLYCHLLCGLVQRNEVTRMGSIFASVMKELWSNIRSGQLSEWITDIVANTIEKICNQKCWKGIVTRLWPKAKYIETIVTGSMVQYVPTLNYYSNDMLPLISTIYASSETQFGLNLNPMCKPEDVSYTFMPNVSYFEFIPVDGDKNNVVDLADVKLGCSYEAVVTNFRIRVGDILVVTGFHNKAPQFRFIRRDNVVLSIDLDKTNEDDLFKAVNRGKLTLDSSDLMLAMLISPLSRDKNKDKKSKKHIELKQETFSECCLLMEDSLDEVYKNCRFKEEWTFDSLMDFFISQGASIGQYKTPRCIKSAKALEVIEKMW	0.000 h⁻¹	0.000 h⁻¹	0.000 h⁻¹	0.000 h⁻¹
OsGH3-1: GH3 protein, accession Q8LQM5 (protein, listed as Oryza sativa) MPEAPTAKTAPAYGYAPGAHAEALEFIEHVTANAGQVQRRVLGEILAQNAPAEYLRRYGIPGSPDVVDAFRRLVPLVTYEGLQPDILRIANGDTSPIFSGKPISEFLTSSGTSGGERKLMPTIADEMNRRSLLYSLLMPVMSQSVSGLDKGKAMYLLFVKAESRTPGGLAARPVLTSYYRSRQFLDRPRDPYTSYTSPDEAILCVDSYQSMYAQLLCGLVHRADVLRVGAVFASGFLRAIHFLEKHWARLCHDIRTGELDPEITDRVVRDAVGRVLRADPALADAIEDECARASWEGIIRRLWPRTKYIDVIVTGTMSQYIPTLEFYGGGLPLTCTMYASSECYFGLNLNPMCKPSDVAYTLIPTMCYYEFLPVNCNNATAEASHRDLVDLVDVKLGHEYELVVTTYSGLYRYRVGDVLRVAGFKNKAPMFSFVRRQNVALSVDSDKTDETELHAAVSGAVQHLAPFGASLVEYTSYADAATIPGHYVLFWELRAGSTAVPASVFEECCLSVEEALNSVYRQGRACDRSIGPLEIRVVAEGTFDKLMDYAISRGASINQYKAPRCVRPGPVVELLDARVQGKYFSPKCPKWSPGNKQWNKSKDLVGKGDA	633.605 h⁻¹	33.412 h⁻¹	0.937 h⁻¹	0.207 h⁻¹
